{"source": "patent US7029861B1", "about": "“LPS-response gene compositions and methods” (Board of Regents, The University of Texas System, priority 1998, dated 2006)", "key": {"[1]": {"biological_target": "intact Tlr4 protein, endogenous in RAW 264.7 macrophages (mouse) (UniProt Q9QUK6)", "experiment": "cell-based or functional assay"}, "RAW 264.7 cells": {"test_system": "RAW 264.7 cells", "experiment": "LPS-induced TNF production (EC50 shift) in RAW 264.7 clones expressing Tlr4 constructs, L-929 cytotoxicity assay", "type": "cell-based, murine", "details": "for rightward EC50 shift (inhibition of LPS signaling): membrane-associated cytoplasmic domain constructs lacking the entire ectodomain; for effect on LPS signaling (in words): over-expression of truncated constructs in RAW 264.7 cells; for leftward shift of the LPS EC50 curve (augmentation of the LPS response): over-expression in RAW 264.7, TNF production", "procedure": "FIG. 15C. Composite analysis of the shift in EC50 caused by expression of Tlr4^Lps-n and Tlr4^Lps-d in RAW 264.7 cells. Each point represents an EC50 determination performed on ten independent clones at the stated LPS concentration. For each clone, four replicate assays were performed at each concentration. […] Transfected macrophages were plated in 24 well plates at a density of 5×10^5 cells per well, and covered with 1.0 ml of DMEM supplemented with 10% FBS. LPS was added to each well at the concentration indicated. After 15 hours of incubation the medium was harvested, and TNF concentration was assayed in the standard L-929 cytotoxicity system^36, using cycloheximide at a concentration of 100·g/ml to potentiate killing. After 15 hours of exposure to diluted macrophage medium or to mouse TNF applied at a range of 8 standard concentrations, the number of viable cells was determined by staining with crystal violet. A standard curve relating % cytotoxicity to TNF concentration (not shown) was generated using Prism 3.0, and was based on an assumption of sigmoidicity. Variance among replicate samples was typically beneath 5% of the mean, and departures of individual samples from the sigmoid plot were typically smaller still. Linear estimates of TNF concentration in unknown samples were based on non-linear interpolation from the standard curve (also performed using Prism 3.0). The curves shown were generated assuming sigmoidicity of response with variable slope for each curve, and further assigning a maximum response value of 1760 pg TNF, which yielded an optimal fit for the most responsive curve. Error bars indicate standard deviation among clones at each LPS concentration. Log EC50 values and standard error values are shown in the inset table.\nFIG. 15D. Shifts of the log EC50, determined for individual clones. A more conservative approach, in which log EC50 values were determined for individual clones transfected with vector alone, or with the Tlr4^Lps-n or Tlr4^Lps-d constructs. The log EC50 data were then represented as a scatter plot, in which each point represents the log EC50 determination of a single clone (confidence limits not shown for the sake of simplicity), and is derived from 24 separate TNF assays performed on samples stimulated over a 10^4-fold range of LPS concentration (100 pg/ml to 1·g/ml, as well as an unstimulated control). In most instances, two determinations of log EC50 were made independently for each clone. The mean and standard error of each cluster is shown in the inset, together with p values defining the likelihood that the EC50 displacements are attributable to chance. Data were analyzed by means of a one-tailed t test, using Welch's correction for unequal variance.\nIn order to directly examine the role of Tlr4 as a transducer of the LPS signal in macrophages, the inventors expressed the normal mouse protein—and various mutant forms—in RAW 264.7 macrophages have been expressed (FIG. 14; Table VIII). These cells of murine origin are highly responsive to LPS, and are known to express the Tlr4 mRNA (Poltorak et al, 1998b). Unlike cell lines of non-myeloid origin (i.e., 293 cells or CHO cells), they express all proteins required for the elicitation of a biologically relevant response to LPS (e.g., TNF production). As such, they may be used to determine whether Tlr4 is a limiting factor in the initiation of an LPS signal, and to examine the mechanism by which the Tlr4^Lps-d allele exerts its dominant inhibitory effect on signaling. This was determined by performing more than 3,000 assays of TNF production, induced over an extensive range of LPS concentrations in numerous stable clones, since individual clones show considerable background variability in LPS responses. Moreover, because culture conditions can affect the sensitivity of the TNF assay and production of TNF by LPS-stimulated cells, all transfected and control clones were induced and assayed in parallel. […]"}}, "note": "“Also recorded” adds a separate entry of the source."}
{"molecule": "flag-tagged Tlr4^Lps-d cytoplasmic domain construct, residues 630-835 (P712H) (from UniProt Q9QUK6 630-835) (receptor)", "values": [{"measurement": "shift of the LPS EC50 for TNF production in RAW 264.7 clones", "setting": "[1]", "result": 39, "unit": "fold"}]}
{"molecule": "flag-tagged Tlr4^Lps-n cytoplasmic domain construct, residues 630-835 (from UniProt Q9QUK6 630-835) (receptor)", "values": [{"measurement": "shift of the LPS EC50 for TNF production in RAW 264.7 clones", "setting": "[1]", "result": 4, "unit": "fold"}]}
{"molecule": "Tlr4^Lps-d Cyt. Dom.: membrane-associated Tlr4 cytoplasmic domain with P712H, residues 630–835, with flag peptide, lacking the ectodomain (protein, left off: small tags and cut ends, membrane-associated Tlr4 cytoplasmic domain with P712H, residues 630–835, with flag peptide, lacking the ectodomain) TIISVSVVSVIVVSTVAFLIYHFYFHLILIAGCKKYSRGESIYDAFVIYSSQNEDWVRNELVKNLEEGVPRFHLCLHYRDFIHGVAIAANIIQEGFHKSRKVIVVVSRHFIQSRWCIFEYEIAQTWQFLSSRSGIIFIVLEKVEKSLLRQQVELYRLLSRNTYLEWEDNPLGRHIFWRRLKNALLDGKASNPEQTAEEEQETATWT", "values": [{"measurement": "rightward EC50 shift (inhibition of LPS signaling)", "setting": "RAW 264.7 cells", "result": 39, "unit": "fold"}]}
{"molecule": "Tlr4^Lps-n Cyt. Dom.: membrane-associated Tlr4 cytoplasmic domain, normal sequence, residues 630–835, with flag peptide, lacking the ectodomain (protein, left off: small tags and cut ends) TIISVSVVSVIVVSTVAFLIYHFYFHLILIAGCKKYSRGESIYDAFVIYSSQNEDWVRNELVKNLEEGVPRFHLCLHYRDFIPGVAIAANIIQEGFHKSRKVIVVVSRHFIQSRWCIFEYEIAQTWQFLSSRSGIIFIVLEKVEKSLLRQQVELYRLLSRNTYLEWEDNPLGRHIFWRRLKNALLDGKASNPEQTAEEEQETATWT", "values": [{"measurement": "rightward EC50 shift (inhibition of LPS signaling)", "setting": "RAW 264.7 cells", "result": 4, "unit": "fold"}]}
{"molecule": "Ectodomain: membrane-anchored truncated Tlr4, residues 22–660, lacking the entire cytoplasmic domain (protein, left off: small tags and cut ends, membrane-anchored truncated Tlr4, residues 22–660, lacking the entire cytoplasmic domain) PGSLNPCIEVVPNITYQCMDQKLSKVPDDIPSSTKNIDLSFNPLKILKSYSFSNFSELQWLDLSRCEIETIEDKAWHGLHHLSNLILTGNPIQSFSPGSFSGLTSLENLVAVETKLASLESFPIGQLITLKKLNVAHNFIHSCKLPAYFSNLTNLVHVDLSYNYIQTITVNDLQFLRENPQVNLSLDMSLNPIDFIQDQAFQGIKLHELTLRGNFNSSNIMKTCLQNLAGLHVHRLILGEFKDERNLEIFEPSIMEGLCDVTIDEFRLTYTNDFSDDIVKFHCLANVSAMSLAGVSIKYLEDVPKHFKWQSLSIIRCQLKQFPTLDLPFLKSLTLTMNKGSISFKKVALPSLSYLDLSRNALSFSGCCSYSDLGTNSLRHLDLSFNGAIIMSANFMGLEELQHLDFQHSTLKRVTEFSAFLSLEKLLYLDISYTNTKIDFDGIFLGLTSLNTLKMAGNSFKDNTLSNVFANTTNLTFLDLSKCQLEQISWGVFDTLHRLQLLNMSHNNLLFLDSSHYNQLYSLSTLDCSFNRIETSKGILQHFPKSLAFFNLTNNSVACICEHQKFLQWVKEQKQFLVNVEQMTCATPVEMNTSLVLDFNNSTCYMYKTIISVSVVSVIVVSTVAFLIYHFYFHLILIA", "values": [{"measurement": "effect on LPS signaling (in words)", "setting": "RAW 264.7 cells; listed as Tlr4 ectodomain", "result": "inhibited the LPS response only weakly, if at all; also recorded: fails to inhibit LPS signaling"}, {"measurement": "effect on LPS signaling (in words)", "setting": "RAW 264.7 cells; listed as truncated version of the Tlr4 protein", "result": "only a weak inhibitory effect on LPS signaling"}]}
{"molecule": "Tlr4^Lps-n: flag-tagged full-length normal mouse Tlr4, residues 22–835, expressed in RAW 264.7 cells (protein, left off: small tags and cut ends, flag-tagged full-length normal mouse Tlr4, residues 22–835, expressed in RAW 264.7 cells) PGSLNPCIEVVPNITYQCMDQKLSKVPDDIPSSTKNIDLSFNPLKILKSYSFSNFSELQWLDLSRCEIETIEDKAWHGLHHLSNLILTGNPIQSFSPGSFSGLTSLENLVAVETKLASLESFPIGQLITLKKLNVAHNFIHSCKLPAYFSNLTNLVHVDLSYNYIQTITVNDLQFLRENPQVNLSLDMSLNPIDFIQDQAFQGIKLHELTLRGNFNSSNIMKTCLQNLAGLHVHRLILGEFKDERNLEIFEPSIMEGLCDVTIDEFRLTYTNDFSDDIVKFHCLANVSAMSLAGVSIKYLEDVPKHFKWQSLSIIRCQLKQFPTLDLPFLKSLTLTMNKGSISFKKVALPSLSYLDLSRNALSFSGCCSYSDLGTNSLRHLDLSFNGAIIMSANFMGLEELQHLDFQHSTLKRVTEFSAFLSLEKLLYLDISYTNTKIDFDGIFLGLTSLNTLKMAGNSFKDNTLSNVFANTTNLTFLDLSKCQLEQISWGVFDTLHRLQLLNMSHNNLLFLDSSHYNQLYSLSTLDCSFNRIETSKGILQHFPKSLAFFNLTNNSVACICEHQKFLQWVKEQKQFLVNVEQMTCATPVEMNTSLVLDFNNSTCYMYKTIISVSVVSVIVVSTVAFLIYHFYFHLILIAGCKKYSRGESIYDAFVIYSSQNEDWVRNELVKNLEEGVPRFHLCLHYRDFIPGVAIAANIIQEGFHKSRKVIVVVSRHFIQSRWCIFEYEIAQTWQFLSSRSGIIFIVLEKVEKSLLRQQVELYRLLSRNTYLEWEDNPLGRHIFWRRLKNALLDGKASNPEQTAEEEQETATWT", "values": [{"measurement": "leftward shift of the LPS EC50 curve (augmentation of the LPS response)", "setting": "RAW 264.7 cells; composite EC50 analysis", "result": 30, "unit": "fold"}, {"measurement": "leftward shift of the LPS EC50 curve (augmentation of the LPS response)", "setting": "RAW 264.7 cells; composite EC50 analysis, listed as Tlr4", "result": "about 30 fold"}]}
{"molecule": "Tlr4^Lps-d: flag-tagged full-length mouse Tlr4 with P712H mutation, residues 22–835, expressed in RAW 264.7 cells (protein, left off: small tags and cut ends, flag-tagged full-length mouse Tlr4 with P712H mutation, residues 22–835, expressed in RAW 264.7 cells) PGSLNPCIEVVPNITYQCMDQKLSKVPDDIPSSTKNIDLSFNPLKILKSYSFSNFSELQWLDLSRCEIETIEDKAWHGLHHLSNLILTGNPIQSFSPGSFSGLTSLENLVAVETKLASLESFPIGQLITLKKLNVAHNFIHSCKLPAYFSNLTNLVHVDLSYNYIQTITVNDLQFLRENPQVNLSLDMSLNPIDFIQDQAFQGIKLHELTLRGNFNSSNIMKTCLQNLAGLHVHRLILGEFKDERNLEIFEPSIMEGLCDVTIDEFRLTYTNDFSDDIVKFHCLANVSAMSLAGVSIKYLEDVPKHFKWQSLSIIRCQLKQFPTLDLPFLKSLTLTMNKGSISFKKVALPSLSYLDLSRNALSFSGCCSYSDLGTNSLRHLDLSFNGAIIMSANFMGLEELQHLDFQHSTLKRVTEFSAFLSLEKLLYLDISYTNTKIDFDGIFLGLTSLNTLKMAGNSFKDNTLSNVFANTTNLTFLDLSKCQLEQISWGVFDTLHRLQLLNMSHNNLLFLDSSHYNQLYSLSTLDCSFNRIETSKGILQHFPKSLAFFNLTNNSVACICEHQKFLQWVKEQKQFLVNVEQMTCATPVEMNTSLVLDFNNSTCYMYKTIISVSVVSVIVVSTVAFLIYHFYFHLILIAGCKKYSRGESIYDAFVIYSSQNEDWVRNELVKNLEEGVPRFHLCLHYRDFIHGVAIAANIIQEGFHKSRKVIVVVSRHFIQSRWCIFEYEIAQTWQFLSSRSGIIFIVLEKVEKSLLRQQVELYRLLSRNTYLEWEDNPLGRHIFWRRLKNALLDGKASNPEQTAEEEQETATWT", "values": [{"measurement": "composite range of responsiveness (mean EC50 of Tlr4^Lps-d transfected clones/mean EC50 of Tlr4^Lps-n transfected clones)", "setting": "RAW 264.7 cells; LPS EC50 measured for each individual clone", "result": 1120, "unit": "fold"}, {"measurement": "difference in the mean response at the EC50 point, Tlr4^Lps-n vs Tlr4^Lps-d over-expression", "setting": "RAW 264.7 cells; composite EC50 analysis", "result": "74,000 fold"}, {"measurement": "shift to the right of the LPS EC50 curve (suppression of the LPS response)", "setting": "RAW 264.7 cells; composite EC50 analysis, full-length protein in RAW 264.7, TNF production", "result": 2600, "unit": "fold"}]}
